From patent publication US10047138

Tests used:
[1] = biological target: full length human wild type ICOS (human) (UniProt Q9Y6W8); assay: cell-based or functional assay
[2] = biological target: ICOS-CD3 III fusion protein (human); assay: cell-based or functional assay
ICOS-CD3 III fusion protein (human), sequence (chain, as listed by the source limits assumed): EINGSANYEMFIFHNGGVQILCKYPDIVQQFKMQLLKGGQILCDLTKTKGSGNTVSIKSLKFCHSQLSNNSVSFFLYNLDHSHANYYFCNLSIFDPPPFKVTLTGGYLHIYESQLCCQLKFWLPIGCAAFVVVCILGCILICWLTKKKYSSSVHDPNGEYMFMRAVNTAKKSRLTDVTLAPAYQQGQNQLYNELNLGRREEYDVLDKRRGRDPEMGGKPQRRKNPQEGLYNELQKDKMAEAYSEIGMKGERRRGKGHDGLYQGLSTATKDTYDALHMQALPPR

UniProt Q9Y6W8, sequence (Q9Y6W8 21-199): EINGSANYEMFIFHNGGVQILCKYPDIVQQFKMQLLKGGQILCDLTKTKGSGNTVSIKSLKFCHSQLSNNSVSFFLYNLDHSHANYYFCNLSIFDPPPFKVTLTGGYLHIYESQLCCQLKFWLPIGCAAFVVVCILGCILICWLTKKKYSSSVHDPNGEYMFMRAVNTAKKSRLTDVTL

- IL-2 secretion (RLU), difference between clusters 1 (anti-CD3 alone) and 3 (anti-CD3 plus B7RP1-Fc) [1]: < 8 fold
- IL-2 secretion by Jurkat cells, 2.5 µg/mL anti-CD3 antibody plus 50 µg/mL B7RP1-Fc against anti-CD3 antibody alone [1]: < 17 fold
- IL-2 secretion (RLU), difference between clusters 1 (anti-CD3 alone) and 3 (anti-CD3 plus B7RP1-Fc) [2]: > 200 fold
- IL-2 secretion by Jurkat cells, 2.5 µg/mL anti-CD3 antibody plus 50 µg/mL B7RP1-Fc against anti-CD3 antibody alone [2]: > 170 fold
Substance: B7RP1-Fc protein (from UniProt O75144 19-253) (Fc fusion)
